Results taken from PMC6776259 (PLoS Pathogens, 2019).

Molecular target: the molecule itself
Assay: split reporter (BiFC, NanoBiT)

B1: WSN FluPol heterotrimer in cells infected with recombinant WSN viruses expressing PB1-Gluc1 and PB1-Gluc2 (complex)
chain 1: MDVNPTLLFLKVPAQNAISTTFPYTGDPPYSHGTGTGYTMDTVNRTHQYSERGRWTTNTETGAPQLNPIDGPLPEDNEPSGYAQTDCVLEAMAFLEESHPGIFETSCLETMEVVQQTRVDKLTQGRQTYDWTLNRNQPAATALANTIEVFRSNGLTANESGRLIDFLKDVMESMNKEEMEITTHFQRKRRVRDNMTKKMVTQRTIGKRKQRLNKRSYLIRALTLNTMTKDAERGKLKRRAIATPGMQIRGFVYFVETLARSICEKLEQSGLPVGGNEKKAKLANVVRKMMTNSQDTEISFTITGDNTKWNENQNPRMFLAMITYITRNQPEWFRNVLSIAPIMFSNKMARLGKGYMFESKSMKIRTQIPAEMLASIDLKYFNDSTRKKIEKIRPLLIDGTASLSPGMMMGMFNMLSTVLGVSILNLGQKRHTKTTYWWDGLQSSDDFALIVNAPNHEGIQAGVNRFYRTCKLLGINMSKKKSYINRTGTFEFTSFFYRYGFVANFSMELPSFGVSGINESADMSIGVTVIKNNMINNDLGPATAQMALQLFIKDYRYTYRCHRGDTQIQTRRSFEIKKLWEQTHSKAGLLVSDGGPNLYNIRNLHIPEVCLKWELMDEDYQGRLCNPLNPFVNHKDIESVNNAVIMPAHGPAKNMEYDAVATTHSWIPKRNRSILNTSQRGILEDEQMYQKCCNLFEKFFPSSSYRRPVGISSMVEAMVSRARIDARIDFESGRIKKEEFTEIMKICSTIEELRRQK
chain 2: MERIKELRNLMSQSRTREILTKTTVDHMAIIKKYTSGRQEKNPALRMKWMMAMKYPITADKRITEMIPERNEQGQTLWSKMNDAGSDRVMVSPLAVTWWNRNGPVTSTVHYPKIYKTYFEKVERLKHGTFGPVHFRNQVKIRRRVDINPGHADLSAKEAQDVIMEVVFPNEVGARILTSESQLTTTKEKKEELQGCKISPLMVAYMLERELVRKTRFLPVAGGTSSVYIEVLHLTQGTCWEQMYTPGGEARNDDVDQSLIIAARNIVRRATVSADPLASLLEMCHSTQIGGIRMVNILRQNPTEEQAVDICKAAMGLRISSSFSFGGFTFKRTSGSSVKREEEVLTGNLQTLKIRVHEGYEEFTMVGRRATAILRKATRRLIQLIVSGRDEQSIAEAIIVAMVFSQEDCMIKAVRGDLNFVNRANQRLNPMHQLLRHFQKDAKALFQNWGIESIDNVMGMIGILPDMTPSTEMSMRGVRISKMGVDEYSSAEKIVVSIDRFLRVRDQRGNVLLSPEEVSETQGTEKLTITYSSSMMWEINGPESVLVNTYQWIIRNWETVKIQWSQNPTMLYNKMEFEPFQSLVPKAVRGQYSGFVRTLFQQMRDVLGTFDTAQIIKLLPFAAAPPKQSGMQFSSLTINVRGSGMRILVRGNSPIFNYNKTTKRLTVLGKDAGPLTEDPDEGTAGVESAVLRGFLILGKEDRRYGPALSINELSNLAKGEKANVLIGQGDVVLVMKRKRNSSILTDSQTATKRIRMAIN
chain 3: […]
notes: copies: + +
  luciferase activity, fold over background: > 1000 fold over background
